Results as given in the RNAGym collection of RNA variant scans (doi:10.1073/pnas.2313332121).

B1: TPR t1 (parent)
chain: GACCAAUCUGCCCUCAGAGCUCGAGAACAUCUUCGGAUGCAGAGGAGGCAGGCUUCGGUGGCGCGAUAGCGCCAACGUCCUCAACCUCCAAUGCAUCCCACCACAUGAUGAUGCCUGAAGAGCCUUGGUUUUUUG

Variants of: B1
Assay: polymerase ribozyme fitness, log enrichment relative to wild type (log ratio); higher = more active; in vitro selection for triplet polymerase activity
Outline: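 The heterodimeric triplet polymerase ribozyme's subunits were each mutagenized into PCR-built libraries and transcribed. Every library was selected once, in triplicate, by annealing with a biotinylated primer, the partner subunit and triplets, incubating frozen at −7 °C, gel-excising extended constructs, capturing on streptavidin beads and running RT-PCR. Input and output libraries were Illumina-sequenced, with genotypes kept only at ≥10 input reads and ≥1 read per output. Fitness, from inverse-variance-weighted replicate averages, is the base-2 logarithm of genotype enrichment over wild-type enrichment.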

Variant | polymerase ribozyme fitness (log ratio)
GACCAAUCUGCCCUCAGAGCUCGAGAACAUCUUCGGAUGCAGAGGAGGCAGGUUUCGGUGCCGCGAUAGCGCCAACGUCCUCAACCUCCAAUGCAUCCCACCACAGGAUGAUGCCUGAAGAGCGUUGGUUUUUUA [C53U G61C U106G C124G G135A] | -0.0167
GACCAAUCUGCCCUCAGAGCUCGAGAACAUCUUCGGAUGCAGAGGAGGCAGGUUUCGGUGGCGCGAUAGCGCCAACGUCCUCAACCUCCAAUGCAUGCCACCACAUGAUGAUGCCUGAAGAGCCUUGGUUUUUUG [C53U C97G] | -4.59
GACCAAUCUGCCCUCAGAGCUCGAGAACAUCUUCGGAUGCAGAGGAGGCAGGUUUCGGUGGCACGAUAGCGCCAACGUCCUCAACCUCCAAUGCAUCCCACCACAUGAUGAUUCCUGAAGAGCCUUGGUUUUUUG [C53U G63A G113U] | -5.15
GACCAAUCUGCCCUCAGAGCUCGAGAACAUCUUCGGAUGCAGAGGAGGCAGGUUUCGGUAGCGCGAUAGCGCCAACGUCCUCCACCCCCAAUGCAUCCCACCACAUGAUGAUGCCUGAAGAGCCUUGGUUUUUUG [C53U G60A A83C U87C] | -0.3
GACCAAUCUGCCCUCAGAGCUCGAGAACAUCUUCGGAUGCAGAGGAGGCAGGUUUCCGUGGCGCGAUAGCGCCAACGUCCUCCACCUCCAAUGCAUCCCACCACAUGAUGAUGCCUGAAGAGCCUUGGUUUUUUG [C53U G57C A83C] | -0.254
GACCAAUCUGCCCUCAGAGCUCGAGAACAUCUUCGGAUGCAGAGGAGGCAGGUUUCGGUGGCGCGAUAGCACCAACGUCCUCAACCUCCAAUGCAUCCCACCACAUGAUGAUGCCUGAAGAGCAUUGCUUUUUUG [C53U G71A C124A G128C] | -1.39
GACCAAUCUGCCCUCAGAGCUCGAGAACAUCUUCGGAUGCAGAGGAGGCAGGUUUCGGUGGCGCGAUACCGCCAACGUCCUCAACCUCCAAUGCAUCCCACCACAUGAUGAUGCCUGAAGAGCCUUGGUUUUUUG [C53U G69C] | -1.01
GACCAAUCUGCCCUCAGAGCUCGAGAACAUCUUCGGAUGCAGAGGAGGCAGGUUUCGGUGGCGCGAUAGCGCCAACGUCCUCAACCUCCAAUGCAUCCCACCACAUGAUGAUGCCUGAAAAGCCUUGGUUUUUUG [C53U G120A] | 0.773
GACCAAUCUGCCCUCAGAGCUCGAGAACAUCUUCGGAUGCAGAGGAGGCAGGUUUCGGUGGCGCGAUAGCGCCAACGUCCUCAACCUCCAAUGCAUCCCACCACAUGAUGAUGCCUGAAUAGCCUUGGUUUUUUG [C53U G120U] | -0.193
GACCAAUCUGCCCUCAGAGCUCGAGAACAUCUUCGGAUGCAGAGGAGGCAGGUUUCGGUGGCGCGAUAGCGCCAACGUCCUCAACCUCCAAUUCAUCCCACCACAUGAUGAUGCCUGAAGAGCCUUGGUUUUUUG [C53U G93U] | -0.832
GACCAAUCUGCCCUCAGAGCUCGAGAACAUCUUCGGAUGCAGAGGAGGCAGGUUUCGGUGGCGCGAUAGCGCCAACGUCCUCAACCUCCAAUCCAUCCCACCACAUGAUGAUGCCUGAAGAGCCUUGGUUUUUUG [C53U G93C] | -1.07
GACCAAUCUGCCCUCAGAGCUCGAGAACAUCUUCGGAUGCAGAGGAGGCAGGUUUCGGUGGCGCGAUAGCGCCAACGUCCUCAACCUCCAAUGAAUCCCACCACAUGAUGAUGCCUGAAGAGCCUUGGUUUUUUG [C53U C94A] | -1.44
GACCAAUCUGCCCUCAGAGCUCGAGAACAUCUUCGGAUGCAGAGGAGGCAGGUUUCGGUGGCGCGAUAGCGCCAACGUCUCCAACCUCCAAUGCAUCCCACCACAUGAUGAUGCCUGAAGAGCCUUGGUUUUUUG [C53U C80U U81C] | -4.05
GACCAAUCUGCCCUCAGAGCUCGAGAACAUCUUCGGAUGCAGAGGAGGCAGGUUUCGGUGGCGCGAUAGCGCCAACGUGCUCAACCUCCAAUGCAUCCCACCACAUGAUGAUCCCUGAAGAGCCUUGGUUUUUUG [C53U C79G G113C] | -3.6
GACCAAUCUGCCCUCAGAGCUCGAGAACAUCUUCGGAUGCAGAGGAGGCAGGUUUCGGUGGCGCGAUAGCGCCAACGUCCUCAACCUCCAAUGCAUCCCACCACAUGAUGAUACCUGAAGAGCCUUGGUUUUUUG [C53U G113A] | -1.57
GACCAAUCUGCCCUCAGAGCUCGAGAACAUCUUCGGAUGCAGAGGAGGCAGGUUUCGGUGGCGCGAUAGCGCCAACGUCCUCAACCUACAAUGCAUCCCACCACAUGAUCAUGCCUGAAGAGCCUUGGUUUUUUG [C53U C88A G110C] | -4.54
GACCAAUCUGCCCUCAGAGCUCGAGAACAUCUUCGGAUGCAGAGGAGGCAGGUUUCGGUGGCGCGAUAGCGCCAACGUCCUCAACCUCAAAUGCAUCCCACCACAUGAUGAUGCCUGAAGAGCCUUGGUUUUUUG [C53U C89A] | -1.29
GACCAAUCUGCCCUCAGAGCUCGAGAACAUCUUCGGAUGCAGAGGAGGCAGGUUUCGGUGGCGCGAUAGCGCCAACGUCCUCAACCUCCAAUGCAUCCCACCACAUGAUGAUGUCUGAAGAGCCUUGGUUUUUUG [C53U C114U] | -1.76
GACCAAUCUGCCCUCAGAGCUCGAGAACAUCUUCGGAUGCAGAGGAGGCAGGUUUCGGUGGCGCGAUAGCGCCAACGUCCUCAACCUCCAAUGCAUCCCACCACAUGAUGAUGCCUUAAGAGCCUUGGUUUUUUG [C53U G117U] | -2.22
GACCAAUCUGCCCUCAGAGCUCGAGAACAUCUUCGGAUGCAGAGGAGGCAGGUUUCGGUGGCGCGAUAGCGCCAACGUCCUCAACCUCCAAUGCAUCCCACCACAUGAUGAUGCCUCAAGAGCCUUGGUUUUUUG [C53U G117C] | -3.1
GACCAAUCUGCCCUCAGAGCUCGAGAACAUCUUCGGAUGCAGAGGAGGCAGGUUUCGGUUGCGCGAUAGCGCCAACGUCCUCAACCUCCAAUGCAUCCCAGCACAUGAUGAUGCCUGAAGAGCCUUGGUUUUUUG [C53U G60U C101G] | -1.27
